{"source": "patent US20030049258A1", "about": "“Method of increasing the contractility of a heart, a heart muscle or cells of a heart muscle” (priority 2001, published 2003)", "molecules": {"B1": {"name": "nt-del-phosducin: N-terminal truncated human phosducin variant of SEQ ID No: 2 (52 N-terminal amino acids deleted), expressed from adenovirus Ad-nt-del-phosducin-GFP (protein, listed as Homo sapiens)", "chain": "MSSPQSRDDKDSKERFSRKMSVQEYELIHKDKEDENCLRKYRRQCMQDMHQKLSFGPRYGFVYELESGEQFLETIEKEQKITTIVVHIYEDGIKGCDALNSSLICLAAEYPMVKFCKIKASNTGAGDRFSSDVLPTLLVYKGGELLSNFISVTEQLAEEFFTGDVESFLNEYGLLPEKEMHVLEQSNMEEDME", "modifications": "GFP expressed via adenovirus"}, "B2": {"name": "full-length phosducin: Wild type full-length phosducin, Gβγ binding protein; overexpressed in transgenic mouse hearts (protein)", "chain": "MEEAKSQSLEEDFEGQATHTGPKGVINDWRKFKLESQDSDSIPPSKKEILRQMSSPQSRNGKDSKERVSRKMSIQEYELIHKEKEDENCLRKYRRQCMQDMHQKLSFGPRYGFVYELETGKQFLETIEKELKITTIVVHIYEDGIKGCDALNSSLTCLAAEYPIVKFCKIKASNTGAGDRFSLDVLPTLLIYKGGELISNFISVAEQFAEEFFAGDVESFLNEYGLLPEREVHVLEHTKIEEEDVE"}}, "key": {"[1]": {"test_system": "adult ventricular cardiomyocytes", "test": "Intracellular cAMP formation in cardiomyocytes (ELISA)", "format": "cell-based, rabbit", "procedure": "(§1) Single calcium-tolerant ventricular myocytes were isolated from White New Zealand rabbits. Cardiomyocytes from healthy or failing rabbit hearts were isolated according to the same protocol (Laugwitz et al. (2001) Circ Res. 88, 688-95). Briefly, the hearts were perfused and digested with collagenase. The isolated cardiomyocytes were then resuspended and cultured in modified M199 on laminin-precoated dishes (5-10 μg/cm^2) at a density of 1.5×10^5 cells per cm^2 (at 5% CO2 and 37° C.). The cells were infected with adenovirus (multiplicity of infection (moi) 1 pfu/cell) 5 hours after plating. 50-60% of the infected cardiomyocytes express the transgene at this titer. Cardiomyocytes were harvested 48 hours after adenoviral infection. The cells were homogenized and cytosolic extracts were then used for western bloffing by using a polyclonal rabbit antibody raised against phosducin. Goat anti-rabbit second antibodies by Dianova, Germany, were used as second antibodies.\nIntracellular cAMP formation in cardiomyocytes: The effects of nt-del-phosducin expression on G protein-mediated signalling are shown based on the measurement of cAMP accumulation in isolated cardiomyocytes after ex vivo gene transfer. Cardiomyocytes were investigated 48 hours after adenoviral infection. The cells were harvested and stimulated with increasing concentrations of isoproterenol for 20 minutes. […]"}, "[2]": {"test_system": "cardiomyocytes isolated from healthy hearts", "test": "Single cell contraction after ex vivo adenoviral gene transfer, healthy cardiomyocytes", "format": "cell-based, rabbit", "procedure": "(§2) Recombinant (E1/E3-Deficient) flag-tagged adenovirus for nt-del-phosducin (Ad-nt-del-phosducin-GFP) was generated, expressing the transgene and green fluorescence protein (GFP) under the control of two independent CMV promoters in a bi-cistronic system (He et al. (1998) Proc Natl Acad Sci USA 95, 2509-14). As a control, Ad-GFP without further transgenes was used. Large virus stocks were prepared as described previously (Laugwitz et al. (1999) Circulation 99, 925-933). Adenoviral titers were determined using plaque titration and GFP expression titration in non E1-expressing cells.\nas §1\n(§3) Single cell contraction after adenovirus delivery: Contractility of infected cardiomyocytes was measured by an electro-optical monitoring system connected to online digitalized assessment of amplitude and velocity of shortening and of relaxation as described before (Laugwitz et al. (2001) Circ Res. 88, 688-95). After the contraction amplitude reached stability, increasing concentrations of isoproterenol were applied."}, "[3]": {"test_system": "cardiomyocytes isolated from failing hearts", "test": "Single cell contraction after ex vivo adenoviral gene transfer, failing cardiomyocytes", "format": "cell-based, rabbit", "procedure": "as §2, §1, §3"}, "[4]": {"test_system": "Gβγ-dependent signalling pathways", "test": "IP3 assay: inhibition of Gβγ-mediated effects in adenovirus-infected cardiomyocytes", "format": "cell-based, rabbit", "conditions": "response to 1 μmol/L bradykinin or 10 μmol/l acetylcholine, 1 minute, vs Ad-GFP", "procedure": "For IP3 assays, adenovirus-infected cardiomyocytes were stimulated with the respective agonists for 1 minute, and the reaction was stopped by adding perchloric acid (4%) and scratching the cells off. They were centrifuged at 2000×g, and then […] of KOH (10 mol/L) was added. The solution was resuspended and centrifuged again, and the protein content of each sample was determined by the method of Bradford (1976) Anal. Biochem. 72, 248-254. The supernatant was used for an assay kit using ^3H-inositol-(1,4,5)-trisphophate and a binding protein (Amersham, cat. no. TRK 1000) to measure IP3 formation, following the manufacturer's instructions.\nFor IP3 assays, cardiomyocytes infected with Ad-GFP or Ad-nt-del-phosducin-GFP (Example 1) were stimulated with 1 μmol/L bradykinin or 10 μmol/l acetyl choline, for 1 minute. In addition, basal levels were determined in the absence of agonists. Then the reaction was stopped by adding perchloric acid (4%) and scratching the cells off. They were centrifuged at 2000×g, and then 10 μl of KOH (10 mol/L) was added. The solution was resuspended and centrifuged again, and the protein content of each sample was determined by the method of Bradford^22. The supernatant was used for an assay kit using ^3H-inositol-(1,4,5)-trisphophate and a binding protein (Amersham, cat. no. TRK 1000) to measure IP3 formation, following the manufacturer's instructions. […]"}, "[5]": {"test_system": "rabbits with heart failure", "test": "Pacing-induced heart failure after in vivo adenoviral gene transfer: tip catheterization and echocardiography", "design": "species or system New Zealand White rabbits", "text": "Model of Heart Failure: Medtronic pacemakers were implanted into New Zealand White rabbits (weight 3.6±0.3 Kg; from Harlan, Munich, Germany). Two days afterwards, rapid pacing was initiated at 320 beats/min. Under this protocol, a tachycardia-induced heart failure (HF) develops reproducibly over one week. Pacing was then continued at 360 beats/min, which predictably led to a further deterioriation of heart failure. The average contractility in failing hearts was 2200±320 mmHg/sec (vs. 4000±390 mmHg/sec in healthy controls; p<0.05), and LVEDP increased from 3.6±0.4 mmHg to 13.5±1.2 (p<0.05).\nAdenoviral Gene Transfer To Rabbit Myocardium: After the first week of rapid pacing, all rabbits received catheter-based adenoviral gene transfer (5×10^9 pfu) to the myocardium as described before (Weig et al. (2000) Circulation 101, 1578-1585). For the intervention, the rabbitswere anesthetized with fentanyl and propofol.\nMyocardial Contractility Measurement by Echocardiography and Intraventricular Tip Catheterization: Left ventricular contractility was examined before the initiation of rapid pacing, before adenoviral gene transfer, and at the end of the protocol (two weeks after the start of pacing and one week after gene transfer). The rabbits were anesthetized as described before; ECG was monitored continuously.\nFor echocardiography, a 7.5 MHz probe was fixed on a tripod. Standard sections were recorded, which were well reproducible. For tip catheter measurements, a Millar 3F tip catheter connected to a differentiating device was placed in the left ventricle. After definition of basal contractility and left ventricular pressure, 200 μL of NaCl (0.9%) was injected as a negative control. Isoproterenol was infused at increasing doses. After a sufficient equilibration period, tip catheter measurements were carried out.\nImprovement of LV dysfunction in pacing-induced heart failure after adenovirus delivery: Ad-GFP and Ad-nt-del-phosducin-GFP were directly delivered to rabbit hearts after 1 week of rapid pacing, and hemodynamic parameters were measured after another week of pacing at 360 bpm. […]"}, "[6]": {"test_system": "transgenic heart failure model (β1-TG4)", "test": "Transgenic mouse overexpressing full-length phosducin cross-bred with heart failure model (histology)", "format": "in vivo", "conditions": "heart-failing mice vs heart-failing mice cross-bred with overexpressing mice", "procedure": "FIG. 8 Histological alterations in transgenic mouse hearts. Hematoxylin/eosin-stained 5 μm sections of paraffin-embedded left ventricular myocardium from healthy wild-type mice and from a transgenic heart failure model (,β-TG4”, see Engelhardt et al. (1999) Proc. Natl. Acad. Sci. USA 96, 7059-64). […] The sequence of full-length phosducin was cloned into a plasmid as described by Engelhardt et al. (1999) Proc. Natl. Acad. Sci. USA 96, 7059-64. The purified linear DNA (1 μg/μl) was injected into fertilized oocytes from superovulated FVB/N mice according to standard procedures. The injected oocytes were transferred to the oviducts of pseudopregnant CD-1 mice. All mice were kept in a specific pathogen-free facility. Generation and investigation of these mice was approved by the responsible government authorities. The F0 generation was screened for integration of the transgene by PCR using specific primers. The transgenic mouse was tested with regard to the effect of overexpression of wild type full-length phosducin on the development of heart failure in a murine disease model."}, "adenylyl cyclase": {"test_system": "adenylyl cyclase", "conditions": "compared to controls in different cell types and tissues (Bauer et al. 1992; Schulz et al. 1996); cited from earlier work"}}, "data": [{"molecule": "CC(C)NCC(O)c1ccc(O)c(O)c1", "note": "(stereo not drawn) [isoproterenol, reference compound]", "values": [{"measurement": "intracellular cAMP content", "setting": "[1]; isoproterenol stimulation, all groups, FIG. 3", "value": "increased"}]}, {"molecule": "B1", "values": [{"measurement": "basal and maximal contractility in response to isoproterenol", "setting": "[2]; compared to Ad-GFP-infected control cells, FIG. 5A", "value": "markedly increased"}, {"measurement": "shortening velocity", "setting": "[2]; compared with contraction amplitude results, normal and failing cardiomyocytes", "value": "Very similar results"}, {"measurement": "Emax of fractional shortening in response to isoproterenol", "setting": "[2]; healthy cells, infected ex vivo, Hill equation fit", "value": "11.2±0.2"}, {"measurement": "shift of isoproterenol concentration-response curve", "setting": "[2]; normal cells", "value": "significantly shifted to the left"}, {"measurement": "maximal contraction amplitude in response to isoproterenol", "setting": "[3]; failing cardiomyocytes, FIG. 5B", "value": "enhanced"}, {"measurement": "shift of isoproterenol concentration-response curve", "setting": "[3]; failing cells", "value": "significantly shifted to the left"}, {"measurement": "Emax of fractional shortening in response to isoproterenol", "setting": "[3]; failing cells, infected ex vivo, Hill equation fit", "value": "7.8±0.1"}, {"measurement": "cAMP formation in response to isoproterenol", "setting": "[1]; 48 hours after infection, isoproterenol 20 minutes, vs GFP, did not reach statistical significance", "value": "trend towards decreased cAMP formation"}, {"measurement": "intracellular IP3 formation", "setting": "[4]", "value": "reduced"}, {"measurement": "LV fractional shortening (FS) by serial echocardiography", "setting": "[5]; change during the second week of rapid pacing (before gene transfer vs end of experiment)", "value": "did not change"}, {"measurement": "first derivative of LV pressure (dp/dt max)", "setting": "[5]; one week after gene transfer, in response to isoproterenol, vs Ad-GFP-infected control group", "value": "significantly higher"}, {"measurement": "increase in systolic LV pressure in response to isoproterenol", "setting": "[5]; one week after gene transfer, vs Ad-GFP-infected control group", "value": "significantly higher"}]}, {"molecule": "B2", "values": [{"measurement": "degree of heart failure (histologically: myocyte hypertrophy and fibrosis of heart sections)", "setting": "[6]", "value": "no observable differences"}, {"measurement": "maximal βAR-dependent adenylyl cyclase stimulability", "setting": "adenylyl cyclase", "value": "significantly decrease"}]}]}
